The data set in a line: label from the status in PepcDB records.
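Also: failed if final PepcDB status was selected cloned or expressed and not failed if soluble or beyond.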

Take “MEEPEFQAYVGPRPFEQEDKFIFFGRDREARDLLSLVIAHNLVLVYAQSGAGKTSLINAGLIPLLKENRFEVFPVARVKGTPLRNIKTDEISNIYVLNTLTSWAEDEYDVERLTKMKLVDFLNEQERLQDEDGIPLPRAVIFDQFEEIFSLYQDRWKDREGFFEQISAALETDPLLRVVFVIREDFIAQLDPYVELLPERLRTRFHIERLRREAALLAIKEPLRDTGRSFAEGVAEKLVDDLLKIRVETTPGETTEVTGEFIEAVQLQVVCQNLWRELPPDVKQITFHHLKTYGNVEQELYRFYEEAIRTAAATAHIDEESLRRLFGEVLITTMGTRGMVYRAQESTGGIPNTAIDVLESMHLIRAEWRAGARWYELTHDGFIKPILSSNRVFNDELAEKERAEKERIEKERIEKEWAEKEWAEKERLEKERAEKERLEKELRAEKELAESKQLFYKRLAAISFLAILLALVAVFEWHQAKENAEEARASDLNLNSALLQGDPRNLDKSVLLAIESLKIHITSTADHLIRQGLLSMPHRVVILKHYSDVNNVVFSPDGKYVATASNDNTSRLWDVSTGKQIFVLNHTDPVRNVVFSPDGKYVATASADKTAGVWNTTTGEGISVLNHTGRVNNVVFSPDGKYIATASDDNTSRLWDTATGKQIFVLNQTDPVRNVVFSPDGKYIATASADNTSRLWDTTTGKQIFDMKHDGPVNIVVFSPDGKYVATASADKKARLWNATTGKKIFDMKHDSGINTVVFSPDGKYIVTASDDKTAGVWNTTTGKKIFDMKHDGSVNTVVFSPDGKYIATASADNTSRLWDTATGEKIFFLNHYGWVNTVVFSPDGKYVATASADKTAHLWDVSTGKQISYLRHDSGVNNVVFGPDGKYVVTASADKTADVWNTTTGEKIFVLNHTGRVNNAVFSPDGKYIATASADNTSRLWDTTTGKQIFVLNQTDPVRNVVFSPDRKYIATASDDNTSRLWDTATGKQILVLNHDGPVNTVVFSSDGKYIATASDDNTSRLWDTATGEEIFVLNHTDRVNNVVFSPDGKYIATAGDDNTSRLWGTATGEKIFDMKHDGPVNNVVFSPDGKYVATAGYDNTACLWDTATGEKIFVLNHAGRVNTVVFSPDGKYIATASADKARLWNATTGKQISYLRHDSGVNNVVFSPDGKYIATASVDKTARLWTAKLWISDTEDLIDEANNRLTRNLKPEEWKEYMGDKPYHKRFPNLP”: the protein production entry was “failed”. In the case of “MEERNEQVVEEVKEEVKEAQVEEAVTSEDSEESVEEKSEAALLQEKVDELQAKLTETEGRMLRLQADFENYKRRVQMDKQAAEKYRAQSLVSDILPALDNFERAMQVEANDEQMKSLLQGMEMVYRQLLEAMTKEGVEAIEAVGKQFDPHEHQAVMQVEDSEFESNAVVEEFQKGYKLKDRVIRPSMVKVNQ” it was “failed”; in that of “MEESTVQAPSKRRCSVYEVDGFRFRRKKKRTTESSFVEPIQKEVSNSDSCGHVNDDLNNEEKENKLNVATVPIKSRETVSLAKQEEKTKKLYCESISKDQSEEQRLKALCEAVWTEIYKEAIEEKLPEKGTSLRVLEDVRVAFLDQLTWYLDNPEQRSKTVSEISRPNPINLELEVKIKSLEHDLNCYCNELLGWSNAKSILEEPAKDNKSNETAFSIEERAKKIAVSLSSPYQPQLTRLIKEATVCLDINFTELLEICRIVLTFKNQTAERIKVSYKQELFSNHYQHENS”, “failed”; in that of “MEFILEPWHWFVLGILLMLSELVITAFAALWFGIAAIMVSVLLWLFPMMGITTQVIMWIILSVLCTLLWFKFIKPLSIDKTKAGLSREATIGQIGMVIRVGLSHEQIVVRFALPVLGADEWNCRSLAPVEVGDRVCVVDIMGNDLVVQPHIPINNK”, “failed”. Then “MEFPKMLTRKIKLWDINAHITCRLCSGYLIDATTVTECLHTFCRSCLVKYLEENNTCPTCRIVIHQSHPLQYIGHDRTMQDIVYKLVPGLQEAEMRKQREFYHKLGMEVPGDIKGETCSAKQHLDSHRNGETKADDSSNKEAAEEKPEEDNDYHRSDEQVSICLECNSSKLRGLKRKWIRCSAQATVLHLKKFIAKKLNLSSFNELDILCNEEILGKDHTLKFVVVTRWRFKKAPLLLHYRPKMDLL”, with “failed”. Then “MEFWESSFIEKQTMWGFEPTESAILTKDFFLEKNVKNILVPGIGYGRNAKVFIDNGINVTGIEISKTAIDLARENGLEDVSMYHGSVNEMPFDNKLYDGIFSHALLHLLNEQEREKFIEDCYNQLKPGGYMVFTTVSKKAPMYGKGKQLDKDYYEIMDGVKMFFYDSESIKKDFNQYRLVQVSEIDEPNKNMANKPSINFLMIKCKKER”, with “failed”. Turning to “MEGFHMVSDMCPQITGWRIYVFVVRVFKNVISPNVFELGLILADYAGSNSRIEATVDRRLAPFYEDRFVENEWKTITSFLVRKATDSVRATKHEYGILFMDRTVVVEAPPRSPPVPDFDFTPFDYILEKSAYKNVLVDVVGALVDVGGLTTDYYGLKMSFKIKDRYNEVLECEARNKQAEYLDGYFKSLGKGNFVVALSFWRLTELSNPKLASHGAISKVVANPDIPEVADIAMVVF”, the protein production entry is “failed”. Then “MEGIMNPYTALPTPQQLLAIEQSVYSSDPFRQGLTPPQMPGDHMHPYGAEPLFHDLDSDDTSLSNLGDCFLATSEAGPLQSRVGNPIDHLYSMQNSYFTS”, with “not failed”; and “MEGITYMNLGTNDKLPKLNTHYSSLSKRLMASFFDNVIISALSYLLSIIIFIIMTIFSFRYLDEFINHIYLIYFSLHFLVAFFYYITMESSSFQGTLGKLIADIKVVKLNGDKVSIFQAFCRFFIANILLYPAYFFYALVLYNVSNQIIINHSCNPYKINSFYFYGLISSSLIYLIYKLVMLITILISNKKQGIHDILIKTLVIIR”, with “failed”. Then “MEGKGSFSENLVKRLQLVKANRSHLAPLIDLLRSKVSKSVKRNKHFFRDYADQIYIVSSGFKEFILPIVTEFGIKEEHVMANTFTFDNDGNIIGCDANNPLSQDKGKIKLMEKLGLTGDVHVIGDGYTDYEIRGAGLASKFYAFTENVSRAAVTAKADSIAPSFDEILFQEKL”, with “failed”; and “MEGNFIVARFDKNTSFFEDLEEVCNKHGVKAGTVVWAIGMLKDFEVGYWNGQDYEKETFRERLEIVSLHGTIAENDPKYHIHASGARSNHMIVGGHLFSATVDPLIEIQIMKIEGPKMTRVQDPSDKLFKLKIE”, with “failed”. In the case of “MEGSQQTITSKQLVRMLKDASRGSKGKGSGEMKFCFLIGAGASISSGIPSGAKLAWDWLQQIKEDCDGEDFEDWKIEIKMPDQHIEERVGEFYPEIYEKRFGHAPETGYDYIRGLMEGREPSLGYLILANIMVREKHNVVITTNFDNLLEDAIRTYTKEKPFIAGHEALADYVPKRSDRPIILKLHRDLFLQPFSDQLNTDILQAAWESILGKFLSDYHLIVLGYGGNDGSLMNYLLKLKNRKPIYWCVRNTDKATSKSLWNTLSPKAKRLLKNDGYLVPIDDFDRFMYDCYAALGYKFLEGIEKIEKPKSIHEILKPNYARIESIQTQLRQLSQTEEELSKESFQSIKSFLPDSWMWILKANQEKDIDKKDKIYREGIAKYPQDANLLGDYADFLCDICHDYDRAEAYYKRALEADPNHANTLGNYALFLKDVRHDYDQAEAYYKRALAADPNHANNLGNYANFLYNIRCDYDQAETYYKKALEADPNHANTLGNYANFLCDIRHDYDQAEGYYKKALEADPKNAITLGNYALFLNDIRHAYDQAEAYYKRALEVDPKSANKLGNYAHFLITCRGDFKRADSLIQQAFENADNDEETKPLQAKLWFYRYAHYYEEWGAEAEKELAALLNVGAKSIGWNLAPDIELARKNKHPHIEQVEAFAKALTEKAQ” it was “failed”. As to “MEGYRLLYPMRTYLIVSGHGEETNVMAADWVTVVSFDPFIVGVAVAPKRTTHKLIKKYGEFVISVPSLDVLRDVWIAGTKKGPSKLKEMSVTLIPSKKVKVPSIEEALANIECRVIDARSYGDHTFFVGEVVGYTYKDYAFEKGKPNLKAKFLAHVSWSEFVTFSEKVHKAE”, the protein production result is on record as “not failed”.

For the sequence “MEHICGTSRIAGFRFSLYPMTDDFISVIKSALKKTDTSKVWTKTDHISTVLRGSIDHVFDAAKAIYLHAANSEQHIVMNGTFSIGCPGDTQGDTYLSKGDKRVNEDAVRGLKAEAPCQFALYPMNEPDYMGLIMEAVDIAKAQGTFVQGVHYASELDGDAHDVFSTLEAVFRMAEQQTNHITMTVNLSANSPSRKNRKQG”, the protein production result is listed as “not failed”. Then “MEHKISEPNARVDVADVLRGLAVMGIIILHSIEHFNFYSFPDTVPCEWMKFTDKAIWNGLFFVFSNKAYAIFALLFGFSFYIQDNNQQRRGKDFRLRFIWRMALLFIIGQFNAAFFTGEILTMYAMLGLILPLSCRLSDRSIAIFATLLIIQPIDWCKVIYALCNPDYVAGPGLASHYFGIAFDVQKNGTFLETIRMNLWEGQLANLTWALEHGRILQTPALFLFGMLVGRKGLFLYSEQNEQHWLKALGISLICFFPLYGLNNMLPEFITRNAIRVPLQLIISSLSNLSFMVLLVSGLLITFYRIKDRRFLMRFTSYGKMSLTNYIGQSVIGSLLFYHWGFELGRFLGITYSFFFGILFVLLQMAFCSWWLSHFKHGPFEGLWKRLTWIGNNKRK”, with “failed”; and “MEHREKCTRCGQCLEVCSRYEDLGVLDRLYGYLDGSSNIDSESLLRCLTCGLCISACPENLGIKPLISPSRQKWINENGLSERLEHHHHHH”, with “failed”.

“MEHTWMMKYFAEFFGTIILVVFGNGAVANSVLTKTGGNSHDGQANGGWLLIAFSFGFGVMLPAMMFGSISGNHLNPAVTLAQACAGAFPWNQVLPYILVQMLGAIVGQLLLVAVYWPFIAKTSSDDAVFASFSTGDIADSKLNGFITEFVGTAILLFVAVGLYRGMFFKQSEDIANIGVGFLITALVMAVGGPTGPALNPARDLGPRIVYALCPLPHKGSAHWDYGWIPVVAPIAGGICGALLYKLAFGL”: the protein production entry was “failed”. In the case of “MEICSMSQPSSDQSVASFESKSLNILGEHIPVSELAGCEECDTVYRKVKLAAGERAYCVCCGAELYRKTRSLTSLLALVVTALIIFAIANSFPIVKVELQGNTSQTTLLGAAWTMFQIDRALVGILILFTTFIVPLLDLLLLTYILSSVGIFKQRPPYLRLALRILFLFRVWGMVEVFLIGVLVTLVKLVGMVVVIPGVALWAFAILSLLLVYIASVKIKDIWDEVDRCVP”, the protein production result is “failed”.

For the sequence “MEIFELILLMLSAVFLSNVLSRFLPSIAVPLIQVVLGIILAIPLGDHTMDLNPELFLLLFMAPILFNDGASTDKKSLWKNRKAILSLSIGLVFVTVGVLGAFIHYLIPAIPFAAAFALAAALAPTDAVAVGALAEKVRVPHKIMHILEGESLINDASGLVSFQFAVLALVTGTFSFMSAGTSFLLLSLGGIALGAILSLLKIMLMRGLRQLGIENMTSFMLMEILLPFLIFMVAEKVGVNGILAVVSGGMVHSFSYKGLNPEIAQLNLLSKNTWSVIIFSLNGLVFILLGTQLPQILMTIWQDANIQKGMLFVYIIGITFLLLGLRFLWILFFRNYEENPKVDLVSRLKNTFLYTVAGVRGTITLVSALSLPFVLGNGNAFPERDLLIFIAAGVIITTLLLANFTLPLFADKKDKVTADHTTDIVLLRDIVQQLQAYKTDENAVEMNKVLNMYNNRIFSLMEHKEVNATEKELRRLTQEWQLENTRRLVFERKIDTGVGLSHMMRLGKRLYVQTRAEKYRARMRYRQLLSHRFRDFRFVPLTFEERRKEIAKLQNENNLFVMQKLQDLDSNEYNPEIISLYLMNFERALGRGKNKKESNDEALQTTIDLASQIERETIQRYFEKGTITRKEMKVYRDNLLAIEANMQLEF”, the protein production entry is on record as “failed”. As for “MEIILLIIAAVVLFYFYNTLKEYLKNPLNPKTKTEEYDLKNDPYLLAQSSPLDKFKQTQTGAYMRLLKFLDIQKNALDNALRTLFIHELEQPLNSEQQNLAKELLNEPVDKKENFESLCQEIADHTHGEYTKRLKLVEFLMLLAYADGILDSKEKELFLDVGVFLQIDNQDFNELYDNFERFNAIEIPMSLEEAKSLFEIQTHTTKQDLEKKALDLSAPYYHKMNDNKRYSEQDFISLKKIAIASQLLENDLKDS”, the protein production result was “failed”.
